The nature of the data set: protease stability score; higher = more stable; yeast display proteolysis, trypsin and chymotrypsin.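 Further: log10 excess protease needed over predicted unfolded state with 0 meaning unfolded.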

This is an account of results in the NTF2 design screens of Basanta et al. (2020).

Regarding “DSEVLDVLTSIVKNIHNGNPDEVMKQMDPNARVQVGDDRFHGDRKQQEDVQTLLDTMEVNIHITSVDFDGDKVTVRFKVEYNVNGRPFRIEAEMQAVAKNGRIQDLKVRIDKQFLSELKS”, the protease stability score was 0.858.

Turning to “DSHAENLLQQVLKALETGDQKRVMELFDPNAKVRYGDKTLHGREEIRKYVKKLKDEMQIRIEVRSVTVQGNKITADVVVRADVDGKPVEMRVRIHVEFENGKIHSLSVDMDPEQVKELEK”, the protease stability score is 1.56. For “DSHAHNVADEVMRALQENDEDSLRQLLDPNVEFHIGDTTYHGREQVRHWITRLKEQMRVKFDLKDLKVQGDTVHIKLRLEQEHNGQPRQHNVVINVKIDNGRVKKISFQHTK” the value was 1.64; for “DSHEKAEKWARKLNQVWEHNDPDRAMEMVDPNVRVDIGDRRYHGREDWRKMVEHLNKRVDHMEFKFDQVDAHNGKIRITVTFTYTIDGQERTERLVFHVDNVNGRLVAQKAHDG”, 0.343. “DSHLEHKAHEWVKAVNENDPDRLVQLMDKDVKIDVGDKKFSGRENYATEVKKEQDEARVEWKDVKLSADNGKLELQADVVRRHNGQPQRWKVENIYTDKNGVAKYLTNKSKP” yielded a protease stability score of -0.423. “DSHLQEEVERFWKQLEHGNRQNLRELADEEVNFVYGDKTIHGREKAATHMSKRVRKIQIEWKTYSAEVHNGKLDATAEWRADHNGKPKDVKMTFYVKVHNGRIKEVNIQEEK” displayed a protease stability score of 0.178. Next, “DSHQQAREMVRELQRILETNDTDKWRHMFDPNARAQYGDKEYHGRDQVTHYLQEQTQRVDSVRVNIDEVDVSGDKLRVVFTLVRVHNGEEKSDTYVFVLRFHGDHARIESFRRK”: 0.687; “DSHTIAKELMKTWQDAARNNDEDKLKELIDKDASASVGDKTFHGRESFARHVQEQARRADHLEVRLESMSINGDHIHLQFVVRYNVNGKESSDRYVVIFHKVNGKFRVRQIKQR”: 0.721. Next, “DSKELARRFHTELLENLRHNDSERLRRLLDEDARVHVGDKEVHGREQFADEQTKIMEHFDRVELRIREVTIEEGRVKVLIHFDADNNGEKHTDNSEVTFDNQGDKLTNKTQHES”: -0.13; “DSKEVRKAEELAKAVRTGDPDTIVKLMDPNARLKVGDREYRGQKDVQKFLKRVLDEIRVKLDVQDIKAHNGKVKVRATVVQRKNGTPHHRTMRMWVQMNNGHVEELSVSNDS”: 0.401; “DSKQRAKEFVKEFQRVLQKGDPDQAEKMADKDVRINVGDKTYHGREEMWKMAQEWQRKYDEMSITVSRIQTRPGRIVANAKLKLDNNGTTDDTHLVIVVREHNGHYRAVHIRLG”: 0.992.

As to “DSKVRRVAERFMHAIQEGNEDDVRKLADKNVQIHVGEKELRGRDQLAKDVSDRTRQIRLHIKHLSIHVQGDKVIVRFDVVETHNGKPHRYRAKAEMRVRNGRVTRYTVKHDG”, the protease stability score stood at 0.633. For “DSNALSRAMEYLRVVEQGDPKRAKQLFDPNARFIYGDRTVHGKDRIADMLRHERDDMRLQIDDLKTTVQGDKVVVRYKAVRERNGHPETFRAEFRVEFNNGKIEQQNYQVHK” the value was 0.25; for “DSQERADDWMRDFNRAVQHGDPTQLTDLMDKDANARIGDTSVHGRHHLVTRWQQFRTDVDRVDIHIVSIEVQGDKIHIDMTFQADVNGRRKEDHIVIIAVDRNGKVKVQQIQDK”, -0.337. Turning to “DSQKERDLVEHFLRNFRTGDPDKLKTMADPNAHMRVGDKNVHGREDLSRWVQEVRDRADHIDIDTFSVSNGRATATIVMRVDGKEVRFEVVITMENGKIKSMEQQDR”, the protease stability score amounted to 0.726. “DSRAANLFSHAWKQVETGNNHNFRKLLDPNARRKVGDQTIDGREEMTEDNKRKRKEMHRTIETMSFEDHGDKAVFYMQYVVHHNGEPREIRNRVIIKVRGDRIKEVEVRKDG” showed a protease stability score of 0.006. With “DSRAQSLFHKWMDALRTGDRRKLSELADPNVSITYGDKTIHGREENMKEAHRLVNQMRVDFDIKSIENEPNRVIIRMRVEYDVNGRPFDDEVVVELRAKGDHIKEVRVRIDPRQVKELSG”, the protease stability score is 0.907. With “DSRAVHLAKNFMSALKTGDHDRARDNLDKDARISIGDKVWHGMDEAVHDIKREKEEMRIEFRKVDAKDSNGKVRMDADVVFNHDGRPDKFRLDADIEVHNGRIHVLDVENSK”, the protease stability score stood at 0.264. For “DSRDNRAATRLRQAHESGDPDQIRDNVDPNATIQVGDKSIHGMESWAREEHKKHRELKVEIKDFRQSASNGHVKATIDRVDNHNGRPQRTTVDIHIVFHNGKVKSIDVKTTK” the value was -0.481; for “DSREAKRAETFFRLVQRGDSRKLQEYMDPNARINIGEKRIHGRENYAKEVKDRREHIRVDIKSLEASDTNGRIHVEVHFEHSHNGRPDQQTMELRITMHNGRAQEITQHETK”, -0.223. “DSREEAKRFFTKMVEIFKTGDEDEAHEMADKNARVHVGDKTVRGREQYTRKMSKEVKQVDHAEYRIQDVEVQGEHIRITFVRRIDTNGRTNEQHLVMEAEKHNGRIYIKQIHES” yielded a protease stability score of -0.159.

On to “DSRELDEFIHKFAQVIRKGNPRDAMKNVDKDARAVVGNKHINGRDQFHKWIEDLNKTIDHFEIVHVEVEGDRALMDVQVNINGKTRRIRLTAHVHNGRFKDVRVDPENERKLNQ”, for which the protease stability score turned out to be 0.011. For the sequence “DSREQEDFRRKVETNNPDQEKKMFDENARLQVGDKTYHGREKVFDFLKTLMDQVDHVHVRDMHVKGDEYSFDIILDINGRRIHITFLARVHNGHIKSQSLRATDESVKDEIEELQG”, the protease stability score worked out at 0.404. “DSRSNAQRVLDAINQLVHGNPQEFNKNADPNVRATYGDKEVHGREEVKKHVDSLMKKVDHVQVKNYQITGDKARVQVVLDINGRTRHVQINAHAKNGRIKHVEIQQQ” showed a protease stability score of 0.895. “DSTNVEILKEYVENQRRGNEDQLRRLMDPNVHVQVGDKQLHGDRQITDEFRRQQEHLRFSIKTYDYRDQGDKVRAHIVYEQMHNGRPETVRHNMVAEIHNGNIKYLQIESDQ”: the protease stability score was -0.301. Consider “DSTQVRILEEMNRAIERGDPERVYQLADPNARFQIGDTQIHGMESFMKHVEETVRHMRISIRSLHADDEGDKMKVTFTFVVNRDGQPRRRVVTATAHANGDQVKYLEWRDDE”, for which the protease stability score came out at 0.477. For “DTDAVKNFKEDLHAVRSGDPDRLLKMFDPNAKLQIGDKEVTGMDQYAKEVHNTRQEIRMSYELRDYKVDGDKIEADIRVQKDVNGRPYRDKVKVDIKVNNGRIKKARYQVDEDKEKQLQS” the value was -0.126. With “DTDAVRRALKFIDAMQDGDPDKARELMDPNARVNIGDKEYHGMTSFVKDLKRLRDEIRVQYNIRDYNAQGEKIHVTVDVVFEHNGRPVDERFNVTIDIQGDKIKQVTAHRTK”, the protease stability score amounted to 1.61. As for “DTDDNRKAAENILTAIQSNDPDERQKNADENVKVNVGDNRISGRENMHEFMKRVWEDVDKITIRSYTFKGDKMTADIHLNFNGQTAKLNVDVNIHNGKAQEVSMDPKADRVVRT”, the protease stability score was 0.47. Next, “DTDDTEALRRFFDALHNGDPDKVDKNADKDVRFKVGDKEIHGREQLRRTVEQQKKEIRYEVDVKQISDHNGQVSVHAHFQENKNGKPKNVEVTAVAEAENGTLKQLEFNSDQ”: -0.367; “DTDKTARQLVRDLEKALQTGDPDKLAKLFDKDARINVGEKDYQGRERMQRNWRRDNTRIDHVSVDLKDMKIQGNKISVDMTIKFKVDGHHNSRVVVLLFDNDNGTVRAVENQQK”: 0.16; “DTEARKLIEELLRAVRDGDPDQVKQNADPNARVQYGDQTFHGMDRYAEWVEEMHKQARVSIEFDSFSFTGDKVQMHAKHVVEVNGKPQRDTVVIRAVVRGDKIRNIHFRMDEQRVRDQQS”: 0.783. Consider “DTEDDHEFARKYVEVLESGDPKQWREMFDEDAKMRIGEKTFRGRDQIATWYERYRRQADHVEVKHVETRGEQFQFDFQVHVNGKHARYTLNIRVHNGKLVEVKFDPDQKKTMDK”, for which the protease stability score worked out at 1.75. For “DTEDLNRLANTMASAIHHNDPDKIVKMFDPNARARVGDKSYHGREDLRKMVNEWHRQADDIHIQQVQVHNGRAYINFVRNVNGVHADLTAIITIENGRAEKMTLTYRNPDDEKKVQG” the value was 0.279.
